Data on twelve molecules can be found in patent US20230357420A1 (VILLARIS THERAPEUTICS, published 2023).

The Kd is the concentration at which binding is half-saturated. Low values mean tighter binding, high ones weaker binding.

One experiment concerns the target T1, Rhesus CD122 His tag (rhesus monkey, UniProt Q38J85 27-240 (cynomolgus entry)).
T1 construct: also called rhCD122; cynomolgus and/or rhesus monkey CD122 His tag; not shown: His tag
T1 sequence: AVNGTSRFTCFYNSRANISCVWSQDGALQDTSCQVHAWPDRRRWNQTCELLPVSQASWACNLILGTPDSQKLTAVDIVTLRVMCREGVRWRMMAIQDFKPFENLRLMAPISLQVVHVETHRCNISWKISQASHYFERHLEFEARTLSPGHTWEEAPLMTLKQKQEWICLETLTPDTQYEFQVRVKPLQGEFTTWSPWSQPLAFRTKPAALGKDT
Briefly: Biacore SPR, Fab. On the technique in general: Surface plasmon resonance follows binding to a sensor surface in real time, without labels.

The target in the next experiment is T2, Human CD122 His tagged (human, UniProt P14784 27-240).
T2 construct: also called hCD122; monomeric antigen; not shown: His tag
T2 sequence: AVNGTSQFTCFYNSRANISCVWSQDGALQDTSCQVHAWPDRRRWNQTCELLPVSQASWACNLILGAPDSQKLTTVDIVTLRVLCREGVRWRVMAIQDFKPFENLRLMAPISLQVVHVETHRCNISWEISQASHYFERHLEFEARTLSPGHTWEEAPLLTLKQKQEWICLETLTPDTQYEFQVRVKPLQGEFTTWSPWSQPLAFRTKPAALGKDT
Briefly: Biacore SPR, Fab.

B1: FAB01 (Fab, V domains shown)
VH: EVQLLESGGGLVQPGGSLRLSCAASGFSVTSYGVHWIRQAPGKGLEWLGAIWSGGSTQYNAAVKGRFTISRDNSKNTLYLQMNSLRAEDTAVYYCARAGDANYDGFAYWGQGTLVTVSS
VL: DIQMTQSPSSLSASVGDRVTITCQASSSVSFMYWYQQRPGKAPRLLIYDTSNLASGVPSRFSGSGSGTSYTFTISSLQPEDIATYYCQQWDTYPLTFGGGTKVEIK
notes: 06F11-V optimization variant
Turning to B1, the Kd is 14.4 nM with Rhesus CD122 His tag and 33.6 nM in the experiment with Human CD122 His tagged.

B2: FAB02 (Fab, V domains shown)
VH: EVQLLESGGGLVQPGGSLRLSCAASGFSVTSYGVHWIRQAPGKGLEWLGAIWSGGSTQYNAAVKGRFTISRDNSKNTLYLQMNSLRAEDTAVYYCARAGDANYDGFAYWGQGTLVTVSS
VL: DIQMTQSPSSLSASVGDRVTITCQASQSVSFLYWYQQRPGKAPRLLIYDTSNLASGVPSRFSGSGSGTSYTFTISSLQPEDIATYYCQQWSTYPLTFGQGTKVEIK
notes: 06F11-V optimization variant
With B2, the Kd amounted to 22.5 nM in the experiment with Rhesus CD122 His tag and 50.6 nM with Human CD122 His tagged.

B3: FAB12 (Fab, V domains shown)
VH: EVQLLESGGGLVQPGGSLRLSCAASGFTVTSYAVHWVRQAPGKGLEWLGVIWSGGSTDYNAAFISRLTISKDNSKNTVYFQMNSLRAEDTAVYYCARAGDYNYDGFAYWGQGTLVTVSS
VL: DIQMTQSPSSLSASVGDRVTITCQASSSVSFMYWYQQRPGKAPRLLIYDTSNLASGVPSRFSGSGSGTSYTFTISSLQPEDIATYYCQQWSTYPLTFGQGTKVEIK
notes: 06F11-V optimization variant
Take B3: the Kd in the experiment with Rhesus CD122 His tag was 19.5 nM; with Human CD122 His tagged, 21.8 nM.

B4: FAB07 (Fab, V domains shown)
VH: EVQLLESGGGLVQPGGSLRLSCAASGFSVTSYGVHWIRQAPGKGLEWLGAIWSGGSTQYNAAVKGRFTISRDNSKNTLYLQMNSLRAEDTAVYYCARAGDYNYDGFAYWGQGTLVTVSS
VL: DIQMTQSPSSLSASVGDRVTITCQASSSVSFMYWYQQRPGKAPRLLIYDTSNLASGVPSRFSGSGSGTSYTFTISSLQPEDIATYYCQQWDTYPLTFGGGTKVEIK
notes: 06F11-V optimization variant
As for B4, the Kd with Rhesus CD122 His tag stood at 16.3 nM; in the experiment with Human CD122 His tagged, 30.1 nM.

B5: FAB16 (Fab, V domains shown)
VH: EVQLLESGGGLVQPGGSLRLSCAASGFSVTSYGVHWIRQAPGKGLEWLGVIWSGGSTDYNAAFISRLTISKDNSKNTVYFQMNSLRAEDTAVYYCARAGDYNYDGFAYWGQGTLVTVSS
VL: DIQMTQSPSSLSASVGDRVTITCQASSSVSFMYWYQQRPGKAPRLLIYDTSNLASGVPSRFSGSGSGTSYTFTISSLQPEDIATYYCQQWDTYPLTFGGGTKVEIK
notes: 06F11-V optimization variant
As to B5, the Kd came to 5.04 nM in the experiment with Rhesus CD122 His tag and 8.56 nM in the experiment with Human CD122 His tagged.

B6: FAB04 (Fab, V domains shown)
VH: EVQLLESGGGLVQPGGSLRLSCAASGFTVTSYAVHWVRQAPGKGLEWLGVIWSGGSTDYNAAFISRLTISKDNSKNTVYFQMNSLRAEDTAVYYCARAGDANYDGFAYWGQGTLVTVSS
VL: DIQMTQSPSSLSASVGDRVTITCQASSSVSFMYWYQQRPGKAPRLLIYDTSNLASGVPSRFSGSGSGTSYTFTISSLQPEDIATYYCQQWDTYPLTFGGGTKVEIK
notes: 06F11-V optimization variant
For the molecule B6, the values for the Kd with Rhesus CD122 His tag and in the experiment with Human CD122 His tagged were 9.26 nM and 13.8 nM, respectively.

B7: FAB11 (Fab, V domains shown)
VH: EVQLLESGGGLVQPGGSLRLSCAASGFTVTSYAVHWVRQAPGKGLEWLGVIWSGGSTDYNAAFISRLTISKDNSKNTVYFQMNSLRAEDTAVYYCARAGDYNYDGFAYWGQGTLVTVSS
VL: DIQMTQSPSSLSASVGDRVTITCQASQSVSFLYWYQQRPGKAPRLLIYDTSNLASGVPSRFSGSGSGTSYTFTISSLQPEDIATYYCQQWSTYPLTFGQGTKVEIK
notes: 06F11-V optimization variant
As to B7, the Kd is 15.9 nM in the experiment with Rhesus CD122 His tag and 17.7 nM with Human CD122 His tagged.

B8: FAB13 (Fab, V domains shown)
VH: EVQLLESGGGLVQPGGSLRLSCAASGFSVTSYGVHWIRQAPGKGLEWLGVIWSGGSTDYNAAFISRLTISKDNSKNTVYFQMNSLRAEDTAVYYCARAGDANYDGFAYWGQGTLVTVSS
VL: DIQMTQSPSSLSASVGDRVTITCQASSSVSFMYWYQQRPGKAPRLLIYDTSNLASGVPSRFSGSGSGTSYTFTISSLQPEDIATYYCQQWDTYPLTFGGGTKVEIK
notes: 06F11-V optimization variant
Consider B8, for which the Kd in the experiment with Rhesus CD122 His tag worked out at 3.25 nM; with Human CD122 His tagged, 5.37 nM.

B9: FAB03 (Fab, V domains shown)
VH: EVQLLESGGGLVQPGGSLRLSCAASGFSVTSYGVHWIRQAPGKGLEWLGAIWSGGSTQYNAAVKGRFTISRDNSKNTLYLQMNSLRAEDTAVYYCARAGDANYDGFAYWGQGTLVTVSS
VL: DIQMTQSPSSLSASVGDRVTITCQASSSVSFMYWYQQRPGKAPRLLIYDTSNLASGVPSRFSGSGSGTSYTFTISSLQPEDIATYYCQQWSTYPLTFGQGTKVEIK
notes: 06F11-V optimization variant
With B9, the values for the Kd with Rhesus CD122 His tag and with Human CD122 His tagged were 20.6 nM and 38.6 nM, respectively.

B10: FAB09 (Fab, V domains shown)
VH: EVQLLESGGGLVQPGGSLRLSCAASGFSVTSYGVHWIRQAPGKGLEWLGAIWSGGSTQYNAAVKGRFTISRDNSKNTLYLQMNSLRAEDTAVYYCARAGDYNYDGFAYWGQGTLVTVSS
VL: DIQMTQSPSSLSASVGDRVTITCQASSSVSFMYWYQQRPGKAPRLLIYDTSNLASGVPSRFSGSGSGTSYTFTISSLQPEDIATYYCQQWSTYPLTFGQGTKVEIK
notes: 06F11-V optimization variant
With B10, the Kd with Rhesus CD122 His tag came to 36.5 nM; with Human CD122 His tagged, 72.5 nM.

B11: FAB08 (Fab, V domains shown)
VH: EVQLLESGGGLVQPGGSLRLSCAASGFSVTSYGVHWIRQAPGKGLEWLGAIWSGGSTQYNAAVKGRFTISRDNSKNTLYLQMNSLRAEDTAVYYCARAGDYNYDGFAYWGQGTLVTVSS
VL: DIQMTQSPSSLSASVGDRVTITCQASQSVSFLYWYQQRPGKAPRLLIYDTSNLASGVPSRFSGSGSGTSYTFTISSLQPEDIATYYCQQWSTYPLTFGQGTKVEIK
notes: 06F11-V optimization variant
On to B11, for which the Kd came out at 30.7 nM with Rhesus CD122 His tag and 41.2 nM with Human CD122 His tagged.

B12: FAB10 (Fab, V domains shown)
VH: EVQLLESGGGLVQPGGSLRLSCAASGFTVTSYAVHWVRQAPGKGLEWLGVIWSGGSTDYNAAFISRLTISKDNSKNTVYFQMNSLRAEDTAVYYCARAGDYNYDGFAYWGQGTLVTVSS
VL: DIQMTQSPSSLSASVGDRVTITCQASSSVSFMYWYQQRPGKAPRLLIYDTSNLASGVPSRFSGSGSGTSYTFTISSLQPEDIATYYCQQWDTYPLTFGGGTKVEIK
notes: 06F11-V optimization variant
On to B12, for which binding with Rhesus CD122 His tag was put at a Kd of 16.7 nM.
